# Assay results: publication PMC10159178 (PLOS ONE, 2023)
# B1: 1D1 human monoclonal antibody against the RBD of SARS-CoV-2 (antibody, V domains shown)
# VH: EVLLVESGGGLIQPGGSLRLSCAASGFTVSSNYMIWVRQAPGKGLEWVSLIYSGGSTFYADSVKGRFIISRDSSKNTLYLQMNSLRAEDTAVYYCAREPYGDKAWGQGTLVTVSS
# VL: DIQMTQSPSSLSASVGDRVTITCQASQDINKYLNWYQQKPGKAPKPLISDTSNLQPGVPSRFSGSGAGTDFTLTISSLQPEDIATYYCQQYDNLPITFGQGTRLEIK
# B2: 3D2 human monoclonal antibody against the RBD of SARS-CoV-2 (antibody, V domains shown)
# VH: EVQLVQSGAEVKKPGDSLKISCKGSGYSFANYWIGWVRQKPGKGLEWMGIIYPGDSDTRYSPSSLGQVSISVDKSISTAYLQWSSLKASDTAMYYCARHPIHGYGSGSLYNPDYWGQGTLVTVSS
# VL: QSVLTQPPSVSAAPGQKVTISCSGSNSNIGINYVSWYQQLPETAPKLLIYENNQRPSGIPDRFSGSKSGTSATLGITGLQTGDEADYYCGTWDTSLGAYVFGTGTKVTVL
# notes: also called 3D2 mAb
# Biological target: wild-type SARS-CoV-2 RBD-His protein (SARS-CoV-2, wild-type, UniProt P0DTC2)
# Experiment: SPR
# Conditions: both partners purified
binder,measurement,value
B1,Kd,242 pM
same,koff,0.00015 s⁻¹
same,kon,620000 M⁻¹ s⁻¹
B2,Kd,789 pM
same,koff,0.000268 s⁻¹
same,kon,339000 M⁻¹ s⁻¹
same,t1/2,43.1 min
